The data set in a line: yeast display, Sf9 membrane polyspecificity reagent, FACS + sequencing; frameworks hold sequencing errors. The method in brief:
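Nanobodies from a synthetic yeast display library (Saccharomyces cerevisiae BJ5465), induced 36–48 hours with galactose, were stained 1 hour at 4 °C with 10% biotinylated, detergent-solubilized Sf9 membrane reagent, enriched on streptavidin microbeads, then FACS-sorted. Anti-HA (expression) and streptavidin (reagent binding) fluorescence set low and high (top ~1%) gates. Polyreactivity labels come from the gate of origin. Genes were colony-PCR amplified, MiSeq 2 × 250 sequenced and filtered by CDR length.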
Turning to “QVQLVESGGGLVQAGGSLRLSCAASGLTFVPNARGWYRQAPGKERELVAASSNNGGRTYYADSVKGRFTISRDNAKKTVYLQMNSLKPEDTAVYYCAKYLSPGERHSYDYWGQGTQVTVSS”, the “polyreactivity (PSR sort gate)” value was “high polyreactivity”. As for “QVQRVESGGGLVQAGGSLRLSCAASGRTFRSYAMGWYRQAPGKERQFVAAISRSGASTRYADSVKGRFTISRDNAKNTVYFQMNSLKPEDTAVYYCAAVWPDVRGYDYWGQGTQVTVSS”, the “polyreactivity (PSR sort gate)” value is “high polyreactivity”.

Take “QVQLVESGGGLVQAGGSLRLSCAASGSIFGRYVMGWYRQAPGKERELVAAINWSGSRTYYADSVKGRFTISRDNAKNTVYLQMNSLKPEDTAVYYCAADWWSRYYYWGQGTQVTVSS”: the “polyreactivity (PSR sort gate)” value was “high polyreactivity”. As for “QVQLVESGGGLDQAGGSLRLSCAASGFTSYKYSRGWYRQAPGKETELVAASTGSGSRTFYADSVKGRFTISRDNAKNSFYLLMNSLKPEDTADYYCAARRPLYPERDYWGHGTQVTVSS”, the “polyreactivity (PSR sort gate)” value is “high polyreactivity”. Take “QVQLVESGAGLVQAGGSLRLSCAASGYIFLRYAMGWSRQAPGKERELVAAIRGGSTNYADSVKGRFTISRDNAKNTVYLQMNSLKPEDTAVYYCAARGSKKQAYGYWGQGTQVTVSS”: the “polyreactivity (PSR sort gate)” value is recorded as “high polyreactivity”. With “QVQLVESGGGLVQAGGSLRLSCAASGSIFDAYAMGWYRQAPGKERELVAAITTGGGSTYYADSVMGRFTISRDNAKNTVYLQMNSLKPEDTAVYYCARDYGKYKGYYWGQGTQVTVSS”, the “polyreactivity (PSR sort gate)” value was “low polyreactivity”. Consider “QVQLVESGGGLVQAGGSLRLSCAASGRTIWYYAMGWYRQAPGKERELVASITRSGGSTYADSVKGRFTISRDNAKNTVDLQMNSLKPEDTAVYYCAATRPRIPVYQNNYGYWGQGSQVTVSS”, for which the “polyreactivity (PSR sort gate)” value is given as “high polyreactivity”. In the case of “QVQLVESGGGLVQAGGSLRLSCAPSGSIFVYYGMGWYRQAPRKERELVAAISSGGSTHYADSVKGRFTISRDNAKITVYLQMNSLKPEDTAVYYCAADRFFWLRSYPRYYYWGQGTQVTVSS”, the “polyreactivity (PSR sort gate)” value was “low polyreactivity”.

As for “QVQLEESGGGLVQAGGSLRLSCAASGIIFRLYAMGRYRQAPGKERELVAAISSGGSTNYADSVKGRFTISRDNAKNTVYLQMNSLKPEDTAVYYCAAGKAHNYDYWGQGTQVTVSS”, the “polyreactivity (PSR sort gate)” value is “low polyreactivity”. Take “QVQLVESRGGLVQAGGSLRLSCAASGNTFYGYAMGWYRPAPGKERELVASITLSGDSTYYADSVKGRFTISRDNAKNTVYLQMNSLKPEDTAVYYCAGVYTYPLGYYHYTYDYWGQGTQVTVSS”: the “polyreactivity (PSR sort gate)” value was “low polyreactivity”. In the case of “QVQLVESGGGLVQAGCSLRLSCAASGRTFGTYTKGWYRQAPGKERELVAAIYTRDGSTYYADSVKGRFSISRDNAKNTVYLQMNSLKPDDTAFYYCNAVVRYYDWGYWDYDYWGQGTQVTVSS”, the “polyreactivity (PSR sort gate)” value is listed as “low polyreactivity”. With “QDQLVESAGGLVQAGGSLRLSCAASGSTFVRNAMGWYRQEPGKERELVAAISVDGSSTYYADSVKGRFTISRDIAKNTVYLQMNSLKPEVTAVYYCNADWDYRDFYAITYDFWGQGTQVTVSS”, the “polyreactivity (PSR sort gate)” value is on record as “low polyreactivity”. The value for “QVQLVESGGGLVQAGGSLRLSCAASGSTFADYTMGWYRQAPGKERELSTSYADSVKGRFTISRDNAKNTVYLQMNSLKPEDTAVYYCAAETFYDYGGYDYWGQGTQVTVSS” was “low polyreactivity”; that for “QVQLVESGGGLVQAGGSLRLSCAASGSYLRYYAMGWYRQAPGKERELVAAISRSGTKTYYADSVKGRFTISRDNAKKTVYLQMNSLKPEDTAVYYCAARGYYRDYDSWGQGTQVTGSS” was “high polyreactivity”; that for “QVQLVESGGGLVQAGGSLRLSCAASGIIFYLNAMGWYRQAPGKERELVAGITYSGGSTYYADSVKGRFTISRDNAKNTVYLQMNSLKPEDTAVYYCAARTKWYIFLYDYWGQGTQVTVSS” was “low polyreactivity”. As to “QVQLVESGGGIVQAGGSLRLICAASGFIFVTYAMGWYRQAPGKETELVAAITNSGGTTYYADSVKGRFTISRDNAKNTVYLQMNSLKPEDTAVYYCAADVWTPYLISLKSGYDYWGQGTQVTVSS”, the “polyreactivity (PSR sort gate)” value is “low polyreactivity”. Regarding “QVQLVESGGGLVQAGGSLRLSCAASGSTFGYYTMGRYRQAPGKERELVAAITWSGGTTYYAESVKGRFTISRDNAKNPVYLQMNSLKPEDTAVYYCATRPWYYASPRTRFGSWGQGTQVTVSS”, the “polyreactivity (PSR sort gate)” value is on record as “high polyreactivity”.

As to “QVQLVESGGGLVQAGGSLRLSCAASGRTSLNYAMGWYRQAPGKERELVAAITRGGGGTYYADSVKGRFTISRDNAKNTVYLQMNSLIPEDTAVYYCNRVFSLYGYGWQKYDYWGQGTQVTVSS”, the “polyreactivity (PSR sort gate)” value is recorded as “high polyreactivity”. Regarding “QVQLVESGGGLVQAGGSLRLSCAASGRIFGVYAMGWYRQAPGKERELVAAISFSGGRTYYADSVKGRFTISRDNAKNTVYLQMNSLKPEDTAVYYCAVRGYYSFLYSTAYDYWGQGTQVTVSS”, the “polyreactivity (PSR sort gate)” value was “low polyreactivity”. As for “QVHLVESGGGLVQAGGSLRLSCAASGSTLFPYAMGWYRQAPGKERELVAAISSRGGRTYYADSVKGRFTISRDNAKNTVYLQMNSLKPEVTAVYYCAAGDDYWGQGTEVTVSS”, the “polyreactivity (PSR sort gate)” value is given as “high polyreactivity”. Take “QVQLVESGGGLVQAGGSLRLSCAASGSTFHLYAMGWYRKAPGKEREFVAAIRGRGGNTYADSVKGRFTISRDNAKNTVYLQMNSLKPEDTAVYYCAAPLLRDLRSPYSYNYWGQGTQVTVSS”: the “polyreactivity (PSR sort gate)” value was “low polyreactivity”. The value for “QVQLVESGGGLVQAGGSLRLSCAASGSTIFENVMGWYRQAPGKEREFVAAINTSGGSTYYADSVKGRFTISRDNAKNTVYLQMNSLKPEDTAVYYCARDSYWEMDYWGQGTQVTVSS” was “low polyreactivity”.

“QVQLVESGGGLVQAGGSLRLSCAATGRIFRTTAMGWYRQAPGTVRELVAAITFSGGGTYYADSVKGRFTISRDHAKNTGYLQMNSLKPEETAFYYCYADDSYDLSCFEDDYWGQGTQVTVSS”: the “polyreactivity (PSR sort gate)” value is recorded as “low polyreactivity”. On to “QVQLVESGGGLVQAGGSLRLSCAASGLTFWAYTMGWYRQAPGKERELVAAITSSGGRTYYADSVKGRFTISRDNAKNTVYLQMNSLKPEDTAVYYCAALGGRYRASTYGYWGQGTQVTVSS”, for which the “polyreactivity (PSR sort gate)” value is given as “high polyreactivity”. The value for “QVQLVESGGGLVQAGGSLRLSCAASGRIFVSYTMGWYRQAPGKERELVAAISTDATTNYADSVKGRFTISRDNAKNTVYLQMNSLKPEDTAVYYCAADPFEYSYYTLYTSNPFYYWGQGTQVTVSS” was “low polyreactivity”.

In the case of “QVQLVESGGGLVQAGGSLRLSCAASGYIFGWYAMGWYRQAPGKERELLATIDWSGDSTYYADSVKGRFTISRDNAKNTVYLQMNSLKPEDTAVYYCAVGYVVDTWDEYDYWGQGTQVTVSS”, the “polyreactivity (PSR sort gate)” value was “low polyreactivity”. In the case of “QVQLVESGGGLVQAGGSLRLSCAASGSTFRYYAMGWYRQAPGKEREFVATINKSGGSTYYADSVKGRFTISRDNEKNTVYLQMNSLKPEDTAVYYGATRKSGGYRYDYWGQGTQVTVSS”, the “polyreactivity (PSR sort gate)” value was “high polyreactivity”. Turning to “QVQLVESGGGLVQAGGSLRLSCAASGRTFSRYAMGWYRQAPGKERELVAAISRSGGITYYADSVKGRFTISRDYAKNTVYLQMNSLKPEDTAVYYCAKVYPRVGYDYWGQGTQVTVSS”, the “polyreactivity (PSR sort gate)” value is “high polyreactivity”. “QVQLVESGGGLVQAGGSLRLSCAASGSTFSTNAMGWYRQAPGKERELVAAISRRGGNTYYADSVKGRFTISRDNAKNTVYLQMNSLKPEDTAGYYCAAKYYRFGDPDRYDYWGQGTQVTVSS”: the “polyreactivity (PSR sort gate)” value is listed as “high polyreactivity”. For “QVQLVESGGGLVQAGGSLRLSCAASGSIFVYYAMGWYRQAPGKERELVAAISSRGGSTYYADSVKGRFTISRDNAKNTVYLQMNSLKPEDTAVYYCAAYTLDGVNGRVLDDYWGQGTQVTVSS” the value was “low polyreactivity”; for “QVQRVESGGGLVQAGGSLRLSCAASGRISSWNAMGWYRQAPGKERELVATISRRGGSTYYADSVKGRFTISRDNAKNTVYFQMNSLKQEDTAVYYCAKSSWTYGAYNYWGQGTQVTVSS”, “high polyreactivity”; for “QVQLVESGGGLVQAGGSLRLRCAASGIIFEYYAMGWYRQAPGKERELVAAITWNGGRTYYADSVKGRFTISRDNAKNTVYLQINSLKPEDTAVYYCAALTYYRDYWGLGTQVTVSS”, “high polyreactivity”. The value for “QVQLVESGGGLVQAGGSLRLSCAASGRTFWYNAMGWYRQAPGKERELVATINSVGSTNYADSVKGRFTISRDNAKNTVYLQMNSLKPEDTAVYDCNAGYGYVRGRKGGAIVKYYYWGQGTQVTVSS” was “high polyreactivity”; that for “QVQLVESGGGLVQAGGSLRLSCAASGSIFKTYAMGWYRQAPGKERELVAAISSGGSTYYADSVKGRFTISRDNAKNTVYLELNSLKPEDTAVYYCAADPWGAFVSFASYYYWGQGTQVTVSS” was “low polyreactivity”.

In the case of “QVQLVESGGGLVQAGGSLRLSCAASGRIFRRYAMGWYRQAPGKERELVAAINGRGTTTYYADSVKGRFTISRDNAKNTVYLQMNSLKPEDTAVYYCAAENTIRYDREYDYWGQGNQVTVSS”, the “polyreactivity (PSR sort gate)” value is “high polyreactivity”. With “QVQLVESGGGLVQAGGSLRLSCADSGFTFPSYTMGWYRQAPGKERDLDASIRVSGGRTYYADSVKGRFTISRDNAKNTVYLQMNSLKPEDTAVYYCAADYMTWWGGRYDYWGQGTQVTVSS”, the “polyreactivity (PSR sort gate)” value is recorded as “high polyreactivity”.

For “QVQLVESGGGLVQAGGSLRLSCAASGSIYSHYAMGWYRQAPGKERELVAAITKSGSTTYYADSVKGRFTSSRDNAKNTVYLQMNSLKPEDTAVYDCWGQGTQVTVSS”, the “polyreactivity (PSR sort gate)” value is listed as “low polyreactivity”. For the sequence “QVQLVESGGGLVQAGGRLRLSCAASGRIFYWNVMGWYRPAPGKERELVAAISSSGASTSYADSVKGRFTISRDNAKNTVYLQMNSLKPEDTAVYYCAARTRRNYRQYNYWGQGTQVTVSS”, the “polyreactivity (PSR sort gate)” value was “high polyreactivity”. For “QVQLVESGGGLVQAGGSLRLSCAASGRIFYYAMGWYRQAPGKERELVASITWSGGSTYYADSVKGRFTISRDNAKNTVYLQMNSLKPEDTAVYYCNADDLYTWYVVYNYWGQGTQVTVSS”, the “polyreactivity (PSR sort gate)” value was “low polyreactivity”. For “QVQLVESGGGLVQAGGSLRLSCPASGFIINVYVMGWYRQAPGKERELVAAISGGGSTYYADSVKGRFTISRDNAKNTVSLQMNSLKPEDTAVYYCAAVYYYQNEGYDFWGQGTQVTVSS” the value was “low polyreactivity”.

Take “QVQLVESGGGLVQAGGSLRLSCAASGRIFRLYVMGWYRQAPGKERELVATISSRGGSTYYADSVKGRFTISRDNAKNTVYLQMNSLKPEDTAVYYCAAVSRYRYGYDYWGQGTQVTVSS”: the “polyreactivity (PSR sort gate)” value is on record as “high polyreactivity”.

(Values after the nanobody polyreactivity screen of Harvey et al. (2022).)
